Laboratory results as given in publication PMC8968458.

Target: NF-κB protein p65 (endogenous) (human (endogenous in PC-3)), Q04206
Test: immuno-depletion
Conditions: remark: other sources report otherwise

Sequence of NF-κB protein p65 (endogenous) (human (endogenous in PC-3)), Q04206 (Q04206 whole entry): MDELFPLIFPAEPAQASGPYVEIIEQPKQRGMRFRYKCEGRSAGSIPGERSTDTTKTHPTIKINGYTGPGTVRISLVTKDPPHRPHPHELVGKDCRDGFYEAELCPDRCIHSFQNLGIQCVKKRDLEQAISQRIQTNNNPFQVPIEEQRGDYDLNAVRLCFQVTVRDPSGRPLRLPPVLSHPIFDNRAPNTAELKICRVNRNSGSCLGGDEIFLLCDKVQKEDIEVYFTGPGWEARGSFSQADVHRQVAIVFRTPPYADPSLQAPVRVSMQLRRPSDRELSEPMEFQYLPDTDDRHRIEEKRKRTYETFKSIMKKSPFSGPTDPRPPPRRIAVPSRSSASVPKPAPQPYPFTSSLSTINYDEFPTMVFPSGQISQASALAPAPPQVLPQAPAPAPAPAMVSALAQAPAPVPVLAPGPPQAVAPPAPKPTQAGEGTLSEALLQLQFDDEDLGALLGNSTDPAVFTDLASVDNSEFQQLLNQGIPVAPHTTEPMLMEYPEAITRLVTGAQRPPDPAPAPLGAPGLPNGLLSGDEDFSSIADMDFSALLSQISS

percent of IκBα bound to p65: 63%
B1: IκBα (endogenous), P25963 1-317 (natural protein)
chain: MFQAAERPQEWAMEGPRDGLKKERLLDDRHDSGLDSMKDEEYEQMVKELQEIRLEPQEVPRGSEPWKQQLTEDGDSFLHLAIIHEEKALTMEVIRQVKGDLAFLNFQNNLQQTPLHLAVITNQPEIAEALLGAGCDPELRDFRGNTPLHLACEQGCLASVGVLTQSCTTPHLHSILKATNYNGHTCLHLASIHGYLGIVELLVSLGADVNAQEPCNGRTALHLAVDLQNPDLVSLLLKCGADVNRVTYQGYSPYQLTWGRPSTRIQQQLGQLTLENLQMLPESEDEESYDTESEFTEFTEDELPYDDCVFGGQRLTL
